Data from PMC2132560 (The Journal of Cell Biology, 1997).

B1: GST-transportin1 fusion protein (natural protein)
chain: MEYEWKPDEQGLQQILQLLKESQSPDTTIQRTVQQKLEQLNQYPDFNNYLIFVLTKLKSEDEPTRSLSGLILKNNVKAHFQNFPNGVTDFIKSECLNNIGDSSPLIRATVGILITTIASKGELQNWPDLLPKLCSLLDSEDYNTCEGAFGALQKICEDSAEILDSDVLDRPLNIMIPKFLQFFKHSSPKIRSHAVACVNQFIISRTQALMLHIDSFIENLFALAGDEEPEVRKNVCRALVMLLEVRMDRLLPHMHNIVEYMLQRTQDQDENVALEACEFWLTLAEQPICKDVLVRHLPKLIPVLVNGMKYSDIDIILLKGDVEEDETIPDSEQDIRPRFHRSRTVAQQHDEDGIEEEDDDDDEIDDDDTISDWNLRKCSAAALDVLANVYRDELLPHILPLLKELLFHHEWVVKESGILVLGAIAEGCMQGMIPYLPELIPHLIQCLSDKKALVRSITCWTLSRYAHWVVSQPPDTYLKPLMTELLKRILDSNKRVQEAACSAFATLEEEACTELVPYLAYILDTLVFAFSKYQHKNLLILYDAIGTLADSVGHHLNKPEYIQMLMPPLIQKWNMLKDEDKDLFPLLECLSSVATALQSGFLPYCEPVYQRCVNLVQKTLAQAMLNNAQPDQYEAPDKDFMIVALDLLSGLAEGLGGNIEQLVARSNILTLMYQCMQDKMPEVRQSSFALLGDLTKACFQHVKPCIADFMPILGTNLNPEFISVCNNATWAIGEISIQMGIEMQPYIPMVLHQLVEIINRPNTPKTLLENTAITIGRLGYVCPQEVAPMLQQFIRPWCTSLRNIRDNEEKDSAFRGICTMISVNPSGVIQDFIFFCDAVASWINPKDDLRDMFCKILHGFKNQVGDENWRRFSDQFPLPLKERLAAFYGV

What was measured:
[1] = target: B1; test: native gel or EMSA
RanGTP = RanGTP (UniProt P62826 1-216); test: native gel or EMSA

binding result [1]	binding result (RanGTP)	Binder
binds	–	recombinant hnRNP A1 protein (natural protein, human, UniProt P09651-2 1-320, looked up) MSKSESPKEPEQLRKLFIGGLSFETTDESLRSHFEQWGTLTDCVVMRDPNTKRSRGFGFVTYATVEEVDAAMNARPHKVDGRVVEPKRAVSREDSQRPGAHLTVKKIFVGGIKEDTEEHHLRDYFEQYGKIEVIEIMTDRGSGKKRGFAFVTFDDHDSVDKIVIQKYHTVNGHNCEVRKALSKQEMASASSSQRGRSGSGNFGGGRGGGFGGNDNFGRGGNFSGRGGFGGSRGGGGYGGSGDGYNGFGNDGSNFGGGGSYNDFGNYNNQSSNFGPMKGGNFGGRSSGPYGGGGQYFAKPRNQGGYGGSSSSSSYGSGRRF
–	binds	B1
